Where two headings read alike, the source gives them in different places.
T1: rat CD38 antigen protein (rat, UniProt Q64244 45-303, limits assumed)
T1 construct: also called rat antigen
T1 sequence (looked up): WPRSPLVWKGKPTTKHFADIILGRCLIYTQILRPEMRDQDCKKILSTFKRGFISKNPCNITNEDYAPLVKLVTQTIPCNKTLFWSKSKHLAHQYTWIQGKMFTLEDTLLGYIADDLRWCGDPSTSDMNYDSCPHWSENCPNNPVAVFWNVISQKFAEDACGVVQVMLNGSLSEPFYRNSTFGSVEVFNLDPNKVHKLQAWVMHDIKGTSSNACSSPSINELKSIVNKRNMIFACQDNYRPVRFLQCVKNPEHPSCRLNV

T2: mouse CD38 antigen protein (mouse, UniProt P56528 45-304, limits assumed)
T2 construct: also called mouse antigen
T2 sequence (looked up): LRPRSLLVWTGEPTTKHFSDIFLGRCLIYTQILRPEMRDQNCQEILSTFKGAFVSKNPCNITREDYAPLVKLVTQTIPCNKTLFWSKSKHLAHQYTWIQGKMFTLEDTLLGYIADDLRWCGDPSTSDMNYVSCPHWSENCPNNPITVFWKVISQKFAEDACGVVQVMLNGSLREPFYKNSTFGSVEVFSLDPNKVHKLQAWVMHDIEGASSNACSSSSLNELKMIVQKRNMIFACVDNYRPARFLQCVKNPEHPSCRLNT

T3: rhesus macaque erythrocytes (rhesus macaque)
T3 chain: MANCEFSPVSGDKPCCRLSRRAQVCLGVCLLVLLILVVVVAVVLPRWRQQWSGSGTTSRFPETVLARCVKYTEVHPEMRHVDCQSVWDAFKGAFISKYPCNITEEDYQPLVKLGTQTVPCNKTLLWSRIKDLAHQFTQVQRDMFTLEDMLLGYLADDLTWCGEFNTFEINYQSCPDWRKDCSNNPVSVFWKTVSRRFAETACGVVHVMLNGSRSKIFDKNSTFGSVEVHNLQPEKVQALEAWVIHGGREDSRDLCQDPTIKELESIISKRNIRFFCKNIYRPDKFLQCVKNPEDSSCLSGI


How the values were obtained:
rat CD38 antigen protein = molecular target: T1, rat CD38 antigen protein; assay: ELISA on coated rat CD38 antigen (1 µg/mL) [panel Rat CD38]
[1] = molecular target: T4, recombinant extracellular domain of CD38 (human, UniProt P28907 43-300); assay: Biacore SPR
T4 construct: also called CD38 extracellular domain; AtaGenix ATMP00140HU

[2] = molecular target: T4, recombinant extracellular domain of CD38; assay: Biacore SPR; remark: listed apart in the source
[3] = molecular target: T2, mouse CD38 antigen protein; assay: ELISA on coated mouse CD38 antigen (1 µg/mL) [panel Mouse CD38]
[4] = molecular target: T3, rhesus macaque erythrocytes; assay: flow cytometry on rhesus macaque erythrocytes
FcγRIIIa(F176) = FcγRIIIa(F176) (UniProt P08637 17-208, limits assumed); assay: kinetics, FcγRIIIa as ligand, antibody as analyte
FcγRIIIa (V176) = FcγRIIIa (V176) (UniProt P08637 17-208, limits assumed); assay: kinetics, FcγRIIIa as ligand, antibody as analyte
[5] = molecular target: T5, CD38 on CD38-positive cells (human, UniProt P28907 1-300); assay: flow cytometry on NCI-H211 cells (small cell lung cancer), MFI against antibody concentration [table, row NCI-H211]
T5 construct: whole, on cells; also called CD38 on H211, SU-DHL-6, Daudi, Ramos (Romas), Raji, SU-DHL-1, DU145, H157 cells

[6] = molecular target: T5, CD38 on CD38-positive cells; assay: cell-based or functional assay
[7] = molecular target: T5, CD38 on CD38-positive cells; assay: flow cytometry on CD38-positive H211 cells
[8] = molecular target: T5, CD38 on CD38-positive cells; assay: flow cytometry on SU-DHL-6 cells (B cell lymphoma), MFI against antibody concentration [table, row SU-DHL-6]
[9] = molecular target: T6, human CD38 antigen protein (coated in ELISA) (human, UniProt P28907 43-300, limits assumed); assay: ELISA on coated CD38 antigen, OD (450 nm) against antibody concentration (ng/ml) [Plate3]
T6 construct: also called the antigen CD38; human antigen

Sequence of FcγRIIIa (V176) (P08637 17-208 F176V limits assumed): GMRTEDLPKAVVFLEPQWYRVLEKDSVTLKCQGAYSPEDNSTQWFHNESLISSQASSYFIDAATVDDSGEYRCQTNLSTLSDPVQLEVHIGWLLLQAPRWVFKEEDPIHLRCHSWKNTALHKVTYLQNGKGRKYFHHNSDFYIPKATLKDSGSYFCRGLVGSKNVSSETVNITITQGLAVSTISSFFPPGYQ
Sequence of FcγRIIIa(F176) (P08637 17-208 limits assumed): as the sequence (P08637 17-208 F176V limits assumed) above, with V160F counted along it

Binder | Kd [1] [nM] | koff [1] [s⁻¹] | kon [1] [M⁻¹ s⁻¹] | Kd [2] [nM] | koff [2] [s⁻¹] | kon [2] [M⁻¹ s⁻¹] | Rate of apoptosis (%), Daudi cells [6] [%] | Rate of apoptosis (%), Raji cells [6] [%] | Rate of apoptosis (%), Romas cells [6] [%] | Rate of apoptosis (%), SU-DHL-6 cells [6] [%] | EC50 (read off the curve) [9] [µg/mL] | other results
FTL004-1 (antibody, human IgG1, kappa, copies: 2 + 2) heavy: not shown light: DIVLTQSPASLAVSPGQRATITCRASESVDNFGITFMHWYQQKPGQPPKLLIYRASNLESGVPARFSGSGSRTDFTLTINPVEANDTANYYCQQSSKDPRTFGQGTKLEIKRTVAAPSVFIFPPSDEQLKSGTASVVCLLNNFYPREAKVQWKVDNALQSGNSQESVTEQDSKDSTYSLSSTLTLSKADYEKHKVYACEVTHQGLSSPVTKSFNRGEC | – | – | – | – | – | – | 40.9 | 7.14 | 64.2 | 21.2 | – | EC50 [4]: 2 to 5 µg/mL; Kd (FcγRIIIa(F176)): 19.5 nM; Kd (FcγRIIIa (V176)): 29.5 nM; koff (FcγRIIIa (V176)): 0.0229 s⁻¹; kon (FcγRIIIa (V176)): 778000 M⁻¹ s⁻¹; EC50 [5]: 0.555 µg/mL
FTL004-hu-10 (antibody, human IgG1, kappa, V domains shown, also called FLT004-hu-10; FTL004-hum-10) VH: QVQLVQSGAEVKKPGASVKVSCKASGYTFTDYNVHWIRQAPGQGLEWIGYFYPRNGATHYAQKFQGRVTMTVDTSTSTAYMELSSLRSEDTAVYYCARGETPGTFPYWGQGTLVTVSS VL: EIVLTQSPATLSLSPGERATLSCRASESVDNFGITFMHWYQQKPGQAPRLLIYRASNLESGIPARFSGSGSRTDFTLTISSLEPEDFAVYYCQQSSKDPRTFGQGTKLEIKR | – | – | – | 14.9 | 0.00241 | 162000 | – | – | – | – | ~0.3 | –
FTL004-hu-14 (antibody, human IgG1, kappa, V domains shown, also called FLT004-hu-14; FTL004-hum-14) VH: EVQLVQSGAEVKKPGATVKISCKASGYTFTDYNVHWIQQAPGKGLEWIGYFYPRNGATHYAEKFQGRVTLTADTSTDTAYMELSSLRSEDTAVYYCARGETPGTFPYWGQGTLVTVSS VL: DIVLTQSPASLAVSPGQRATITCRASESVDNFGITFMHWYQQKPGQPPKLLIYRASNLESGVPARFSGSGSRTDFTLTINPVEANDTANYYCQQSSKDPRTFGQGTKLEIKR | – | – | – | 22.4 | 0.00466 | 208000 | – | – | – | – | ~0.5 | –

The next lines start with results.

Kd [1] [nM] | koff [1] [s⁻¹] | kon [1] [M⁻¹ s⁻¹] | Kd [2] [nM] | koff [2] [s⁻¹] | kon [2] [M⁻¹ s⁻¹] | Rate of apoptosis (%), Daudi cells [6] [%] | Rate of apoptosis (%), Raji cells [6] [%] | Rate of apoptosis (%), Romas cells [6] [%] | Rate of apoptosis (%), SU-DHL-6 cells [6] [%] | EC50 (read off the curve) [9] [µg/mL] | Binder | other results
14.6 | 0.000969 | 66100 | 2.02 | 0.0005 | 248000 | – | – | – | – | – | H2 antibody (antibody, V domains shown, Murine monoclonal antibody from a BALB/c hybridoma; also called H2 mAb; Hybridoma-2) VH: EVQLQESGAELVRSGASVKMSCKASGYTFTDYNVHWIKQTPGQGLEWIGYFYPRNGATHYNQKFTGKATLTADTSSSTAYIQISSLTSEDSAVYFCARGETPGTFPYWGQGTLVTVSA VL: DIVLTQSPASLTVSLGQRATISCRASESVDNFGITFMHWYQQKPGQPPKLLIYRASNLESGIPARFSGSGSRTDFTLTIDPVETDDVATYYCQQSSKDPRTFGGGTKLEIK | binding result (rat CD38 antigen protein): no binding (tested: 300 µg/ml); binding result [3]: no binding (tested: 300 µg/ml)
12.2 | 0.00363 | 297000 | 1.96 | 0.000355 | 181000 | 10.6 | 5.73 | 9.78 | 10.4 | – | Daratumumab (antibody, V domains shown) VH: EVQLLESGGGLVQPGGSLRLSCAVSGFTFNSFAMSWVRQAPGKGLEWVSAISGSGGGTYYADSVKGRFTISRDNSKNTLYLQMNSLRAEDTAVYFCAKDKILWFGEPVFDYWGQGTLVTVSS VL: not shown | EC50 [7]: 1.94 µg/mL; EC50 [8]: 0.548 µg/mL
